According to article doi:10.1101/2022.07.09.499445 (bioRxiv, 2022):

B1: QacA_(D411N)GFP (natural protein)
chain: MISFFTKTTDMMTSKKRWTALVVLAVSLFVVTMDMTILIMALPELVRELEPSGTQQLWIVDIYSLVLAGFIIPLSAFADKWGRKKALLTGFALFGLVSLAIFFAESAEFVIAIRFLLGIAGALIMPTTLSMIRVIFENPKERATALAVWSIASSIGAVFGPIIGGALLEQFSWHSAFLINVPFAIIAVVAGLFLLPESKLSKEKSHSWDIPSTILSIAGMIGLVWSIKEFSKEGLADIIPWVVIVLAITMIVIFVKRNLSSSDPMLDVRLFKKRSFSAGTIAAFMTMFAMASVLLLASQWLQVVEELSPFKAGLYLLPMAIGDMVFAPIAPGLAARFGPKIVLPSGIGIAAIGMFIMYFFGHPLSYSTMALALILVGAGMASLAVASALIMLETPTSKAGNAAAVEESMYNLGNVFGVAVLGSLSSMLYRVFLDISSFSSKGIVGDLAHVAEESVVGAVEVAKATGIKQLANEAVTSFNDAFVATALVGGIIMIIISIVVYLLIPKSLDITKQK
B2: ICab B7, purified (VHH)
VHH: QVQLQESGGGSVQAGGSLRLSCAASGYTNSRKCMGWFRQIPGKEREGVAAIYGFGRGLILYADSVKGRFTISQDNAKNTVYLQMNSLKPEDTAMYYCAADSPGSCLSRSGYNYWGQGTQVTVSS
B3: ICab A4, purified (VHH)
VHH: QVQLQESGGGSVQTGGSLRLSCAASGYRYSDNCVGWFRQAPGREREAVATYNSGSSTWYADSVKGRFTISQDSAKSTVYLQMNNLKPEDTAMYYCAGRNRLGSYCYMTGDFAYWGQGTQVTVSS

What was measured:
five unique clones = assay: flow cytometry on cells
[1] = target: ICab B7, displayed on the yeast cell surface (camel); assay: flow cytometry on cells
[2] = target: ICab A4, displayed on the yeast cell surface (camel); assay: flow cytometry on cells
[3] = target: QacA WT (tagged with GFP) (Staphylococcus aureus, UniProt P0A0J9); assay: immunostaining of cells or tissue

Binder	population shift (five unique clones) [%]	Kd [1] [nM]	Kd [2] [nM]	binding result [3]
B1	65 to 97	100	65	
B2				binds
B3				binds
